Data set [1] deals with the molecule itself. Nature of the data set: SDS-resistant band on the immunoblot of the pull-down eluate; The Strep-tagII-S100A13 pull-down eluate from the C6 glioma cytosolic fraction was run on SDS-PAGE and blotted with anti-ANXA2. The 63 kDa band is read as the ANXA2 dimer.
For data set [2], the target named is T1, recombinant Strep-tagII-S100A13 protein.
T1 chain: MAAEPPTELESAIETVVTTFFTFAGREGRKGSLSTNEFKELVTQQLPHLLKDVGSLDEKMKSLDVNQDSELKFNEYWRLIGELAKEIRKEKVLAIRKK
Nature of the data set: ELISA; vehicle 0.05% DMSO. In general terms: An ELISA detects its analyte on a solid surface through an enzyme-linked reagent.

Data set [3] has the same target. The data set can be described thus: ELISA; 100 uM amlexanox.

B1: annexin A2 (ANXA2), endogenous in C6 glioma cells (natural protein, rat (endogenous in C6 glioma cells), UniProt Q07936 1-339, looked up)
chain: MSTVHEILCKLSLEGDHSTPPSAYGSVKPYTNFDAERDALNIETAIKTKGVDEVTIVNILTNRSNAQRQDIAFAYQRRTKKELPSAMKSALSGHLETVMLGLLKTPAQYDASELKASMKGLGTDEDSLIEIICSRTNQELQEINRVYKEMYKTDLEKDIISDTSGEFRKLLVALAKGKRAEDGSVIDYELIDQDARELYDAGVKRKGTDVPKWISIMTERSVCHLQKVFERYKSYSPYDMLESIRKEVKGDLENAFLNLVQCIQNKPLYFADRLYDSMKGKGTRDKVLIRIMVSRSEVDMLKIRSEFKRKYGKSLYYFIQQDTKGDYQKALLYLCGGDD
notes: annexin A2, rat, endogenous in C6 glioma cells; In whole cell extracts it ran as a single band; also called dimeric ANXA2 of 63 kDa; ANXA2 dimer; source: endogenous, rat C6 glioma cells (cytosolic fraction; fixed cells for in situ PLA)
Regarding B1, the stoichiometry N (commonly a count of units in the complex or per binding partner) in data set [1] stood at 2. In addition, the Kd (commonly the free concentration of one partner at which half of the binding sites on the other are occupied at equilibrium, for simple one-to-one binding) was determined as 416 nM in data set [2] and 418 nM in data set [3].

For the origin of these results see paper PMC7998613, “Annexin A2 Flop-Out Mediates the Non-Vesicular Release of DAMPs/Alarmins from C6 Glioma Cells Induced by Serum-Free Conditions” (Cells, 2021).
